Assay [1] concerns the target IRA/IGF1R hybrid receptor (IRA-Luc/IGF1R-YFP) (UniProt P06213).
The target in assay [2] is IRB/IGF1R hybrid receptor (IRB-Luc/IGF1R-YFP) (UniProt P06213).
For assay [3], the target named is IRB homodimer (IRB-Luc/IRB-YFP) (UniProt P06213).
Assay [4] addresses IRA homodimer (IRA-Luc/IRA-YFP) (UniProt P06213).
Assay [5] deals with insulin receptor (IR), endogenous in MCF-7 and MDA-MB231 cells (human (endogenous in MCF-7 and MDA-MB231)) (UniProt P06213).
Assay [6] concerns the target IRA/IGF1R hybrid receptor (IRA-Luc/IGF1R-YFP) (UniProt P06213). This is another data set of the same source.
For assay [7], the target named is IRB/IGF1R hybrid receptor (IRB-Luc/IGF1R-YFP) (UniProt P06213). This is another data set of the same source.
Assay [8] deals with IRB homodimer (IRB-Luc/IRB-YFP) (UniProt P06213). This is another data set of the same source.
Assay [9] concerns the target IRA homodimer (IRA-Luc/IRA-YFP) (UniProt P06213). This is another data set of the same source.

Take “glulisine (B3Lys,B29Glu-insulin) (ligand)”: the EC50 of ligand-induced BRET (Luc/YFP on the two ß-subunits) of partially purified receptors is 183 nM in assay [1], 107 nM in assay [2], 1.64 nM in assay [3] and 1.61 nM in assay [4]. This substance also came in with an EC50 of PIP3 production (BRET, Luc-Akt-PH and membrane YFP) in living MDA-MB231 cells in assay [5] of 0.84 nM.

On to “Glargine metabolite M1 (A21Gly-insulin) (ligand)”, for which the EC50 of ligand-induced BRET (Luc/YFP on the two ß-subunits) of partially purified receptors, series with M1 and M2 in assay [6] was found to be 225 nM; in assay [7] it was 147 nM; in assay [8], 9.64 nM; in assay [9], 16.7 nM.

For “detemir (B29Lys(e-tetradecanoyl),desB30)-insulin) (ligand)”, the EC50 of ligand-induced BRET (Luc/YFP on the two ß-subunits) of partially purified receptors in assay [1] is 335 nM; in assay [2], 175 nM; in assay [3], 5.24 nM; in [4] it was 5.13 nM. In addition, the EC50 of PIP3 production (BRET, Luc-Akt-PH and membrane YFP) in living MDA-MB231 cells in [5] was 2.3 nM.

Consider “IGF1 (from UniProt P05019 49-118) (ligand)”, for which the EC50 of ligand-induced BRET (Luc/YFP on the two ß-subunits) of partially purified receptors, series with M1 and M2 in [6] stood at 4.23 nM; in [7] it was 3.05 nM; in [8], 130 nM; in assay [9], 50.6 nM. The EC50 of ligand-induced BRET (Luc/YFP on the two ß-subunits) of partially purified receptors in assay [1] was 3.01 nM; in [2], 2.87 nM; in [3], 50 nM; in [4], 34.4 nM.

Turning to “Glargine metabolite M2 (A21Gly,B30desThr-insulin) (ligand)”, the EC50 of ligand-induced BRET (Luc/YFP on the two ß-subunits) of partially purified receptors, series with M1 and M2 in [6] was determined as 315 nM; in assay [7], 169 nM; in [8], 6.31 nM; in assay [9] it was 13.8 nM.
